Reference: publication PMC5916898, “Global profiling of protein–DNA and protein–nucleosome binding affinities using quantitative mass spectrometry”

Legend:
Test in all cases: pulldown; 150 mM NaCl, 50 mM Tris pH 8, 0.25% NP-40, 1 mM TCEP; 4 C, 2 h; 100 ug HeLa nuclear lysate
PAX6 = PAX6 (Homo sapiens, UniProt P26367); conditions: protein: extract; label: 5' biotin (strand 1)
NFATC3 = molecular target: T1, NFATC3 (Homo sapiens, UniProt Q12968); conditions: protein: extract; label: 5' biotin (strand 1)
T1 sequence: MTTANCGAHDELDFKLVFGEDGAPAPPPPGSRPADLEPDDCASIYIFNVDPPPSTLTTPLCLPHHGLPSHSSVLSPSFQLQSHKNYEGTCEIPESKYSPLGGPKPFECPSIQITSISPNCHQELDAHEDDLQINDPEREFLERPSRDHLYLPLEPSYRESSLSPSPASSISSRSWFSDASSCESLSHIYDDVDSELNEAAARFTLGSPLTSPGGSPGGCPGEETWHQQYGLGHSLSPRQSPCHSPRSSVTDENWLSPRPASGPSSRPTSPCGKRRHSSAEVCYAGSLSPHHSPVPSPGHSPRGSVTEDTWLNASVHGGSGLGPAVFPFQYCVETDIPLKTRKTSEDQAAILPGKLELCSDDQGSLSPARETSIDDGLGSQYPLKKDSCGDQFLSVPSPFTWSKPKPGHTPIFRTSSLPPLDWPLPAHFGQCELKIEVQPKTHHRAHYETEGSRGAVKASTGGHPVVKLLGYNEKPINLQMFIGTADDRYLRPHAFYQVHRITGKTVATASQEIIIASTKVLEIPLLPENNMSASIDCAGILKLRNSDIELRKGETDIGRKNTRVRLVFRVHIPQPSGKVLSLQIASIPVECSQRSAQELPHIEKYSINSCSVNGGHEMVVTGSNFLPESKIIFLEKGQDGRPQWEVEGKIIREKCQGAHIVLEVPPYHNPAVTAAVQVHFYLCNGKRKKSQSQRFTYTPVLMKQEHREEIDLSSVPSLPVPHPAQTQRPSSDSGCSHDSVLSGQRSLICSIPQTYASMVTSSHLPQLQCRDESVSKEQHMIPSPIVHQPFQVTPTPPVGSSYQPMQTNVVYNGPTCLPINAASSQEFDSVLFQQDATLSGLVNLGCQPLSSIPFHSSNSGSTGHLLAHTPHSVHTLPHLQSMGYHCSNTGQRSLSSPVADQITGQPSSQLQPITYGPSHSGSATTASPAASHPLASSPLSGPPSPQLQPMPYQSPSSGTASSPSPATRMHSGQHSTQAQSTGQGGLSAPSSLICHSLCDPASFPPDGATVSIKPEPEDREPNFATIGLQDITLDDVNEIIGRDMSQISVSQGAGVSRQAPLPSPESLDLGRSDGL

HOXC10 = HOXC10 (Homo sapiens, UniProt Q9NYD6); conditions: protein: extract; label: 5' biotin (strand 1)
Chain of HOXC10 (Q9NYD6 whole entry): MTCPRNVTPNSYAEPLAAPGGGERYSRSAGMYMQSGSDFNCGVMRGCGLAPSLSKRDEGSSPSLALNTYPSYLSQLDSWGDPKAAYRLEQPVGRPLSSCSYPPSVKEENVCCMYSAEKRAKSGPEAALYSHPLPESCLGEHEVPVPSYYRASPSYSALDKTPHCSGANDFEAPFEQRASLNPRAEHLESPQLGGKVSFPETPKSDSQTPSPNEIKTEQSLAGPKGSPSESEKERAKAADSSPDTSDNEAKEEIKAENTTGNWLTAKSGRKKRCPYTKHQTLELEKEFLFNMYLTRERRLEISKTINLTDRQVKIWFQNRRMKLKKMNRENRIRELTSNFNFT

ZNF24 = ZNF24 (Homo sapiens, UniProt P17028); conditions: protein: extract; label: 5' biotin (strand 1)
Chain of ZNF24 (P17028 whole entry): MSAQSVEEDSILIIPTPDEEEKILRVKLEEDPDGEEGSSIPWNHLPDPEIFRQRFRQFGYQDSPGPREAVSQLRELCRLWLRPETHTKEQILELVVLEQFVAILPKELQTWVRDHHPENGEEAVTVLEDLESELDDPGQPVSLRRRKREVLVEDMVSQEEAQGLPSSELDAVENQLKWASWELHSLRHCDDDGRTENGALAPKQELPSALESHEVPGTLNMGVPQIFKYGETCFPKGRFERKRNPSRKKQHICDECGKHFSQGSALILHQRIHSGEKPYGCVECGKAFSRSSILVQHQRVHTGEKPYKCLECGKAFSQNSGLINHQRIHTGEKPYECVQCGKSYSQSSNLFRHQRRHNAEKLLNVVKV

HIVEP1 = HIVEP1 (Homo sapiens, UniProt P15822)
CTCF = molecular target: T2, CTCF (Homo sapiens, UniProt P49711); conditions: protein: extract; label: 5' biotin (strand 1)
T2 sequence: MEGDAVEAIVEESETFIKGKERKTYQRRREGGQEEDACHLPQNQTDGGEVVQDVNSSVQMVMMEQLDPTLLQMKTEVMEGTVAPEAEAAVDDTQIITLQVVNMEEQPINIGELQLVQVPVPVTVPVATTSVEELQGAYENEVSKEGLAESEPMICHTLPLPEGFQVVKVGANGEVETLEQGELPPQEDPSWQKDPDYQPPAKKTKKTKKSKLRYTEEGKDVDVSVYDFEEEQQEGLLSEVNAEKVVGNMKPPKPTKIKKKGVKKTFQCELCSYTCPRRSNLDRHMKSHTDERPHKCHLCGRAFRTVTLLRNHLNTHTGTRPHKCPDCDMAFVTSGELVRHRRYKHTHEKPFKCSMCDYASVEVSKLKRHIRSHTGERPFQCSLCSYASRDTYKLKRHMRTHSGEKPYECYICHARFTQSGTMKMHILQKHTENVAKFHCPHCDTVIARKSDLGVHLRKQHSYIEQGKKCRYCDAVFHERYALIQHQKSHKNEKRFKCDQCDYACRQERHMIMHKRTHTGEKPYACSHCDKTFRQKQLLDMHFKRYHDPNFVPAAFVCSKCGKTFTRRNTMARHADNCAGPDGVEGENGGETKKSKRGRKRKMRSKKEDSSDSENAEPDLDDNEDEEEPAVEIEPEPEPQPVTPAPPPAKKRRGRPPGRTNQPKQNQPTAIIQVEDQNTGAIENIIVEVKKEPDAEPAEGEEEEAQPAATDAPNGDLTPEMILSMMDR

ESRRA = molecular target: T3, ESRRA (Homo sapiens, UniProt P11474); conditions: protein: extract; label: 5' biotin (strand 1)
T3 sequence: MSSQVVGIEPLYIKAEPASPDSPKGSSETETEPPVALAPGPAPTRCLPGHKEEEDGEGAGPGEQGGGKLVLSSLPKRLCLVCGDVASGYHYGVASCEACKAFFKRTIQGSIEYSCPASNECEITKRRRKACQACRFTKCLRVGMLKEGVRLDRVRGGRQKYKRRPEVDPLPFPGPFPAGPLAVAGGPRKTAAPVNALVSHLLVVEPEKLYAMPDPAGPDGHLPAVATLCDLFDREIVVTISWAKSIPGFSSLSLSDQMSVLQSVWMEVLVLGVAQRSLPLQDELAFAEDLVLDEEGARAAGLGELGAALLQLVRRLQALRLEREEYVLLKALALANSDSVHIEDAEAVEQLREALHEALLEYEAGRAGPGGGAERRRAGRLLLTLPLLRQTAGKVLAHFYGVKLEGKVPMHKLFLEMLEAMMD

Chain of PAX6 (P26367 whole entry): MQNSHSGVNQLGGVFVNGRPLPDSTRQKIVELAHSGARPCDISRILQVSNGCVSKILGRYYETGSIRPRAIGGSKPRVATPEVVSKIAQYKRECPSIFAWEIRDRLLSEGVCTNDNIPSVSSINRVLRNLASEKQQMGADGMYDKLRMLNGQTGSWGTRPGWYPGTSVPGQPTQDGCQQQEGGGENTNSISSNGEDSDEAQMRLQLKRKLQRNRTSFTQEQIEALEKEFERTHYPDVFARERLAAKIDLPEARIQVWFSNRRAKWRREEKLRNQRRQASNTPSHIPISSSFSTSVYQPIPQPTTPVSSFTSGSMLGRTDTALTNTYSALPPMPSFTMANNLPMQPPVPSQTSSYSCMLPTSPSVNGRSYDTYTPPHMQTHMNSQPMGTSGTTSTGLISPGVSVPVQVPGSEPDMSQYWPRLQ

B1: TEAD (dsDNA)
DNA 1: TCGGGACCCAGGCCTGGAATGTTTCCACC
DNA 2: GGTGGAAACATTCCAGGCCTGGGTCCCGA
- apparent K (half saturation) (PAX6): 191 nM
- apparent K (half saturation) (NFATC3): 46.7 nM

B2: TATA-box (dsDNA)
DNA 1: GCGGCGCTCTATATAAGTGGGCAGTG
DNA 2: CACTGCCCACTTATATAGAGCGCCGC
- apparent K (half saturation) (HOXC10): 87.8 nM

B3: CTCF (dsDNA)
DNA 1: TCAGAGTGGCGGCCAGCAGGGGGCGCCCTTGCCAGA
DNA 2: TCTGGCAAGGGCGCCCCCTGCTGGCCGCCACTCTGA
- apparent K (half saturation) (ZNF24): 388 nM
- apparent K (half saturation) (HIVEP1): 76.6 nM
- apparent K (half saturation) (CTCF): 16.1 nM
- apparent K (half saturation) (ESRRA): 319 nM
